Measured values taken from patent publication US20160046713A1 (INNATE PHARMA, published 2016).

T1: KIR3DL2 domain 1 construct (V5-tagged, CD24-GPI anchored) on HEK-293T/17 cells (human, UniProt P43630 139-238)
T1 construct: also called pcDNA3.1/KIR3DL2 domain 1; KIR3DL2 extracellular domain 1
T1 sequence: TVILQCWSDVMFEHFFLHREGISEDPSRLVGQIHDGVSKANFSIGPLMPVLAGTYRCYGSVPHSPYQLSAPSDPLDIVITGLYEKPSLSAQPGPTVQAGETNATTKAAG

B1: AZ158 (murine monoclonal antibody) (antibody, mouse IgG2b, V domains shown)
VH: QVQLKESGPGLVAPSQSLSITCTVSGFSLTSFGVHWVRQPPGKGLEWLGVIWAGGSTNYNSALMSRLSISKDNSKSQVFLKMNSLQNDDTAMYYCARGNSNHYVSSFYYFDYWGQGTTLTVSS
VL: DIQMTQSPSSLSASLGGKVTITCKASQDINKYIAWYQHKPGKGPRLLIHYTSTLQPGIPSRFSGSGSGRDYSFSISNLEPEDITTYYCLQYDNLWTFGGGTKLEIK
notes: also called mAb AZ158; AZ158-PE
B2: chAZ158 (chimeric AZ158, human IgG1-kappa, with the MKV6-derived kappa chain) (antibody, V domains shown)
VH: B1 VH
VL: DIQMTQSPSSLSASLGGKVTITCKASQDINKYIAWYQHKPGKGPRLLIHYTSTLQPGIPSRFSGSGSGRDYSFSISNLEPEDITTYYCLQYDNLWTFGGGTKLEIKR
notes: also called chiAZ158; AZ158 chimeric antibody

Legend:
[1] = target: T2, human KIR3DS1 (CD158e2) on cells (human, UniProt P43629 22-381); assay: flow cytometry with AZ158-PE on healthy donor PBMC gated on CD3+ T lymphocytes
T2 construct: Present on donor NK and T cells

[2] = target: T3, human KIR3DL1 (CD158e1) on cells (human, UniProt P43629 22-444); assay: two colour immunofluorescence on polyclonal NK cell populations and clones
T3 construct: Present on donor NK and T cells
From the text: mAbs were generated by immunizing 5 week old Balb C mice with polyclonal IL-2 activated NK population. […] The reactivity of AZ158 was further analyzed on NK cell populations and clones in combination with additional antibodies, including EB6 ([…], CD158a), GL183 (anti-p58.2/50.2, CD158b), PAX180 (anti-p50.3) and FES172 (anti-p50.3), as well as Z27 and Q66, and it was observed that AZ158 reacted with the same cell subset stained by the anti-KIR3DL1 and anti-KIR3DL2 mAbs. Similar results were also observed using a panel of NK cell clones expressing different HLA class I specific NK receptors.

[3] = target: T4, KIR3DL1 recombinant protein (R&D systems) (Homo sapiens (Human), UniProt P43629 22-340); assay: SPR (Biacore T100), receptor immobilized on chip, antibody injected at 12 µg/ml
T4 construct: Bought protein; also called KIR3DL1 chip; immobilized KIR3DL1
Experimental: The binding of chimeric AZ158 (“chAZ158”, see Example 3) to KIR3DL2 and KIR3DL1 recombinant proteins (R&D systems) was analyzed by Surface Plasmon Resonance (SPR) using a Biacore T100 apparatus. […] Antibody was injected at a constant concentration of 12 μg/ml over the KIR3DL2 and KIR3DL1 flow-cells. Background signals were subtracted online by co-injecting onto the reference flow cell (dextran alone). Sensorgrams are representative of three independent experiments.

[4] = target: T5, KIR3DL2 domain 2 construct (V5-tagged, CD24-GPI anchored) on HEK-293T/17 cells (human, UniProt P43630 239-340); assay: flow cytometry on transfected HEK-293T/17 cells, goat anti-human-PE detection
T5 construct: also called pcDNA3.1/KIR3DL2 domain 2; KIR3DL2 extracellular domain 2
Experimental: (§1) Transfections were performed using 5 μg of the different pcDNA3.1/KIR3DL2 domain 0, pcDNA3.1/KIR3DL2 domain 1 or pcDNA3.1/KIR3DL2 domain 2 constructs using Lipofectamine 2000 according to manufacturer instructions. To ensure DNA purity for transfection, Maxi-prep endotoxin free kit from Qiagen was used. The Lipofectamine/DNA ratio used was fixed at 2/1. Cells were harvested 48 hours after transfection for flow cytometry experiments.
(§2) Cells were harvested and stained in PBS 1×/BSA 0.2%/EDTA 2 mM buffer during 1H at 4° C. using 5 μg/ml of chiAZ158 antibody. After two washes in staining buffer, cells were stained for 30 min at 4° C. with anti-V5 antibody FITC (0.1 μl per well) and goat anti-human (H+L)-PE antibodies (1/200). After two washes, stainings were acquired on a BD FACS Canto II and analyzed using the FlowJo software.
(§3) Results are shown in FIGS. 7-10, with V5-FITC indicated on the y-axis and chAZ158-GAH-PE on the x-axis. […] No binding of the chiAZ158 antibody could be detected on KIR3DL2 domain 1 (FIG. 9) or domain 2 (FIG. 10). Therefore, it can be concluded from this flow cytometry experiment that the chAZ158 antibody binds to the KIR3DL2 extracellular domain 0 but not to domains 1 and 2.

[5] = target: T1, KIR3DL2 domain 1 construct (V5-tagged, …); assay: as above
Experimental: as §1, §2, §3

T4 sequence (P43629 22-340 limits assumed): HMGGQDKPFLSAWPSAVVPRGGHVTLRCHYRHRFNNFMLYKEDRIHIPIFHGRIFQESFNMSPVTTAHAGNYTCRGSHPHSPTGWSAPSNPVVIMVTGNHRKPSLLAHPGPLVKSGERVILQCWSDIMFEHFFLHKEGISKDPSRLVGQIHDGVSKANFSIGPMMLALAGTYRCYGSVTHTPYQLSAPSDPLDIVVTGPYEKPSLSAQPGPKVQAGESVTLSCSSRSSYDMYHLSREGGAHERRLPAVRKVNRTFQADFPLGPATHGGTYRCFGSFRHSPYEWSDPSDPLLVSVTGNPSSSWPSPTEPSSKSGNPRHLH
T2 sequence (P43629 other isoform, or with tags, fused parts or gaps limits assumed): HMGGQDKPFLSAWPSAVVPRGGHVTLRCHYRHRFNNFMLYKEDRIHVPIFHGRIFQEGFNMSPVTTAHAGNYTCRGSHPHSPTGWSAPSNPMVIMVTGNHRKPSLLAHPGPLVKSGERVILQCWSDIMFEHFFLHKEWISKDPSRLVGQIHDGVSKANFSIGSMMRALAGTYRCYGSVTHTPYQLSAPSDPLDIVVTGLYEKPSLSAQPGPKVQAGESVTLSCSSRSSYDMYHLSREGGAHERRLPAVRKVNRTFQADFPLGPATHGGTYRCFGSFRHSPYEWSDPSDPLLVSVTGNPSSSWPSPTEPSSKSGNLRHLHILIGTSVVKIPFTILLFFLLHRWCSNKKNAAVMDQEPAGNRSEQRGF
T5 sequence (P43630 other isoform, or with tags, fused parts or gaps limits assumed): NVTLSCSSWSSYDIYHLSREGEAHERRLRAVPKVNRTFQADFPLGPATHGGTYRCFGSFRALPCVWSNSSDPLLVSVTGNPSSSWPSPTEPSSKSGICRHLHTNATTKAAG
T3 sequence (P43629 22-444 limits assumed): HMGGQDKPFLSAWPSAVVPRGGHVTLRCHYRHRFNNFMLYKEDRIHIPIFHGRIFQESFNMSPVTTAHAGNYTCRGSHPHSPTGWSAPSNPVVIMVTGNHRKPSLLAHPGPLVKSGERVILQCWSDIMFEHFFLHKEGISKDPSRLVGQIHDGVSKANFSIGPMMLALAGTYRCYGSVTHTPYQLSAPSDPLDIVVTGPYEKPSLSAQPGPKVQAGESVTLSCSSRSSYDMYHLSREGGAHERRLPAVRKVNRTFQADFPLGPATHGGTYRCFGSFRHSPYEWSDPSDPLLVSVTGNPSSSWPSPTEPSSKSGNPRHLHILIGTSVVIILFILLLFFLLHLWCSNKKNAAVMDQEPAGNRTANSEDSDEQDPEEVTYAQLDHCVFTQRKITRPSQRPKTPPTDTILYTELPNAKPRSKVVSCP

| Binder | binding result [1] | binding result [2] | binding result [3] | binding result [4] | binding result [5] |
| --- | --- | --- | --- | --- | --- |
| B1 | binds | binds | – | – | – |
| B2 | – | – | binds | no binding (tested: 5 µg/ml) | no binding (tested: 5 µg/ml) |
